{"source": "patent US20050260166", "about": "(Phytovation B.V., published 2005)", "binders": {"B1": {"name": "GL3 luciferase siRNA (dsRNA)", "RNA 1": "CUUACGCUGAGUACUUCGATT", "RNA 2": "UCGAAGUACUCAGCGUAAGTT", "modifications": "3'-terminal TT of each strand are deoxynucleotides"}}, "target": "NS1 (Influenza A virus (A/PR/8/34), UniProt P03496 P03496:1-230)", "sequence (P03496 whole entry, one chain of several)": "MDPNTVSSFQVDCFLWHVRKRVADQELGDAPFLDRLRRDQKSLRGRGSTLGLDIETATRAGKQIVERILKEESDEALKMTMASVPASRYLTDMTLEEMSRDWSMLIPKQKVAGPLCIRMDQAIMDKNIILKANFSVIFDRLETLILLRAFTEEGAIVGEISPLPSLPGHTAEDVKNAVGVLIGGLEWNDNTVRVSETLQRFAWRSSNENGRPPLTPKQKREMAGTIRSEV", "assay": "EMSA; 2 pM siRNA with 0-200 pM protein as printed; on ice 20 min; native 5% PAGE", "conditions": "tags: N-terminal His tag (pQE31, Qiagen); label: 5'-33P; 19-bp duplex with 3' dTdT overhangs"}
{"binder": "B1", "values": [{"measurement": "binding result", "result": "binds"}]}
